The record followed here is US20230087785A1, “Leucine-Rich Repeat Kinase 2 Allosteric Modulators” (VIB VZW, priority 2020, published 2023).

In test [1] the target is T1, Full-length human Leucine-rich repeat kinase 2 (LRRK2), N-terminal Strep/Flag (SF) tagged (human, UniProt Q5S007 1-2527). The test is described as follows: cell-based or functional assay.
In test [2] the target is T2, LRRK2 RocCOR domain construct (human, UniProt Q5S007 1334-1840).
T2 construct: A second construct (residues 1293-1840, N-terminal His6-MBP) was used in certain screening experiments; not shown: N-terminal Twin-Strep-tag; C-terminal His10-tag
T2 sequence: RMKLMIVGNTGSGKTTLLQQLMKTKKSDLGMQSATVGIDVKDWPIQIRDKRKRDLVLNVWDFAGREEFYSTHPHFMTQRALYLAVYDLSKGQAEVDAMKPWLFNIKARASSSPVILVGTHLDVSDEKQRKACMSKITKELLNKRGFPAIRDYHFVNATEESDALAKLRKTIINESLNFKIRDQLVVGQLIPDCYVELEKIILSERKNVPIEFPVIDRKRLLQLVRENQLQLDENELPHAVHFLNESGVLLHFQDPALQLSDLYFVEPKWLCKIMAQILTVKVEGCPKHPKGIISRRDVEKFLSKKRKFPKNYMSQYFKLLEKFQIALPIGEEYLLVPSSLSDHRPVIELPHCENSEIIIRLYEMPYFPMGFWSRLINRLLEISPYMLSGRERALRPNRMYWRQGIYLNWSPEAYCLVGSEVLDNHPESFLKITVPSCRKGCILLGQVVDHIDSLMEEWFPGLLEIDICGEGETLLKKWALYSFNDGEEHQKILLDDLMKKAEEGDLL
Description: ELISA, antigen coated on the plate, purified Nb detected via its EPEA tag. In a few lines:
(§1)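 The RocCOR, Roc, COR-B and kinase-WD40 constructs were coated side by side on one ELISA plate. Binding of each purified nanobody to every coated construct was then detected.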

The target of test [3] is T3, LRRK2 Roc domain construct (human, UniProt Q5S007 1329-1520).
T3 construct: not shown: N-terminal His6-tag of pET-28a
T3 sequence: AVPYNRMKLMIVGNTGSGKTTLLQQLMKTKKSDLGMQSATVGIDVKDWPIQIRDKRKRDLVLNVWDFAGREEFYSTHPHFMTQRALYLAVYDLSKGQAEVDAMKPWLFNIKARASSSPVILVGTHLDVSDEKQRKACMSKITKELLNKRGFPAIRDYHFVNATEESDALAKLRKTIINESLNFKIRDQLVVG
The test is described as above. In a few lines: as §1

The target in test [4] is T4, LRRK2 COR-B construct (C-terminal part of the COR domain), His6-MBP tagged (human, UniProt Q5S007 1672-1840).
T4 construct: also called (MBP-)COR-B; not shown: N-terminal His6-MBP-tag of pDEST-566
Described as above. In a few lines: as §1

Test [5] has as its target T1, Full-length human Leucine-rich repeat …. Description: kinase kinetics (PhosphoSens, varied ATP), global fit to mixed inhibition; ATP-bound LRRK2; enzyme kinetics, mixed inhibition fit; ATP-bound LRRK2. The method, then:
(§2) Full Michaelis-Menten curves (relative velocity versus [ATP]) in presence of different Nb concentrations were collected at 30° C. in a buffer consisting of 50 mM HEPES pH 7.5, 0.1% Brij-35, 50 mM NaCl, 10 mM MgCl₂ and […], using a fixed concentration of AQT0615 (10 μM) and varying concentrations of ATP. The LRRK2 concentration was chosen such that initial rates (linear fluorescence versus time curves) were obtained, and LRRK2, ATP and the Nbs were preincubated at 4° C. for 30 min prior to starting the reaction by adding the peptide substrate. The Michaelis-Menten curves for the different Nb concentrations were globally fit on a mixed-inhibition model using GraphPad Prism, according to the equation: […]

Test [6] has the same target. Description: BLI; Nb on LRRK2 trapped on streptavidin sensor via biotinylated Nb40; steady-state fit; BLI; LRRK2 trapped on the sensor via biotinylated Nb40. The method, then:
To determine the binding affinity (dissociation constant KD) of the ten Nbs for LRRK2, two methods were used in parallel: microscale thermophoresis (MST) and bio-layer interferometry (BLI). For the MST experiment, we site-specifically labeled the ten Nbs with a m-TAM RA fluorophore at its C-terminus, using sortase-mediated coupling, and then titrated increasing amounts of full-length LRRK2 to these Nbs (FIGS. 13A-13E).
Biolayer interferometry (BLI) measurements were performed using an Octet Red96 (Forte Bio, Inc.) system in a buffer containing 50 mM HEPES pH 8.0, 150 mM NaCl, 10 mM MgCl₂, 5% glycerol, 0.1% BSA, 0.05% Tween, at 25° C. and with shaking speed 1000 rpm. […] The biotinylated Nbs were first loaded on pre-equilibrated SA biosensors at a concentration of 5 μg/mL. This Nb-loaded sensor was then used to trap FL-LRRK2 from a 50 nM LRRK2 solution. […] All experiments were performed in triplicate.
A general note: In BLI a coated tip is dipped into the sample, and binding shifts an interference pattern.

The target is the same in test [7]. The test is described as follows: kinase kinetics (PhosphoSens, varied ATP), global fit to mixed inhibition; affinity for apo-LRRK2; enzyme kinetics, mixed inhibition fit; apo (non-ATP-bound) LRRK2. The method, then: as §2

B1: Nb23 (CA13612) (VHH)
VHH: QVQLVESGGGLVQAGGSLRLSCAASGRTFSRYTMGWFRQAPGKDREFVARITTSGAVTTYADSAKGRFTISRDNAKNTVYLQMNTLKPEDTAVYYCAAGQGQLSSQSRFVDYWGQGTQVTVSS
One may read the Ki as the equilibrium dissociation constant of an inhibitor or competing ligand from its target. As usually defined, the Kd is a measure of binding affinity in units of concentration. Read a low Kd as tighter binding. In the case of B1, in test [1], the “IC50 of in vitro LRRK2 kinase activity (AQT0615 peptide, PhosphoSens, 1 mM ATP)” value was ~65 µM. For the same molecule, the binding result in test [2], in test [3] and in test [4] was “no binding (tested: not given)” throughout. Besides, the inhibition constant (Ki) in test [5] was 66 µM; in test [7], 9 µM. Further, the equilibrium dissociation constant (Kd) in test [6] was 0.065 µM.
